Assay [1] has as its target T1, α4β1 (R&D Systems #5668-A4) (UniProt P13612 34-977; P05556 21-728).
T1 construct: bought; also called soluble α4β1
Put plainly: α4β1-VCAM competition ELISA. On the procedure: The solution was removed by shaking and then blocked with 250 ul of 1% BSA in 1×PBS per well. The wells were then incubated at room temperature for 1 hr with shaking. Each well was then washed once with wash buffer (50 mM Tris-HCl pH7.6, 100 mM NaCL, 1 mM MnCl2 or MgCl2, 0.05% Tween-20). 25 ul of serial dilutions of peptides starting at 200 μM in assay buffer (Assay buffer: 50 mM Tris-HCl pH7.6, 100 mM NaCl, 1 mM MnCl2 or MgCl2, 0.05% Tween-20) was added to each well. Additionally, 25 ul of α4β1 (R&D Systems #5668-A4) was added to each well at a fixed concentration of 120 nM. The final peptide and α4β1 concentrations were 100 μM and 60 nM, respectively. The plates were then incubated at 37° C. for 2 hr. The solution was then removed by shaking, and each well was washed three times with wash buffer. 50 ul of 9F10 antibody at 4 ug/ml (purified mouse anti-human CD49d, BD Bioscience Cat#555502) was then added to each well, and the plate was incubated at room temperature for 1 hr with shaking. The solution was again removed by shaking, and each well was washed three times with wash buffer. 50 ul of peroxidase-conjugated AffiniPure Goat anti-mouse IgG (Jackson immune research cat #115-035-003) diluted in 1:5000 in assay buffer was added to each well. The plate was incubated at room temperature for 30 min with shaking. […] The reaction was stepped with 2N H₂SO₄ and absorbance was read at 450 nm.

The target in assay [2] is α4β7 integrin on human cells (human) (UniProt P13612). Put plainly: FACS, human whole blood, 1 mM MnCl2, Basophils.
The target is the same in assay [3]. Put plainly: FACS, human whole blood, 1 mM MnCl2, Monocytes. In general terms: In flow cytometry, cells or beads pass a laser one at a time.
For assay [4] the target is unchanged. Put plainly: FACS, human whole blood, 1 mM MnCl2, Eosinophils.
For assay [5] the target is unchanged. Put plainly: FACS, human whole blood, 1 mM MnCl2, Neutrophils.
The target is the same in assay [6]. Put plainly: FACS, human whole blood, 1 mM MnCl2, CD19+ B cells.
For assay [7] the target is unchanged. Put plainly: FACS, human whole blood, 1 mM MnCl2, CD4 naïve T cells.
The target is the same in assay [8]. Put plainly: FACS, human whole blood, 1 mM MnCl2, CD8 naïve T cells.
The target is the same in assay [9]. Put plainly: FACS, human whole blood, 1 mM MnCl2, CD4 memory T cells.
The target is the same in assay [10]. Put plainly: FACS, human whole blood, 1 mM MnCl2, CD8 memory T cells.
Assay [11] shares this target. Put plainly: FACS, human whole blood, 1 mM MnCl2, NK cells CD16+ 56+.
Assay [12] addresses soluble α4β7 integrin (Homo sapiens (Human)) (UniProt P13612). Put plainly: SPR, antibody on streptavidin chip, soluble α4β7 as analyte. (In general: SPR reads the build-up and loss of mass on a sensor chip optically.)
In assay [13] the target is α4β1 (R&D Systems #5668-A4) (UniProt P13612). Put plainly: α4β1-VCAM competition ELISA. Background: In an ELISA, binding on a coated surface is turned into a signal by an enzyme label.
The target in assay [14] is rh integrin α4β7 (R&D Systems #5397-A30) (human) (UniProt P13612). Put plainly: α4β7-MAdCAM competition ELISA.
The target of assay [15] is α4β7 integrin on human cells (human, UniProt P13612 34-1032; P26010 20-798). Put plainly: cell-based or functional assay.
Assay [16] concerns the target α4β1 integrin on human cells (human, UniProt P13612 34-1032; P05556 21-798). Put plainly: cell-based or functional assay.

Bridge positions count the residues as written; N and C are the ends. Square brackets hold non-standard residues; d marks the D form. Phe(4-COOH) = N[C@@H](Cc1ccc(C(=O)O)cc1)C(=O)O; 2Nal = N[C@@H](Cc1ccc2ccccc2c1)C(=O)O; NMeR = CN[C@@H](CCCNC(=N)N)C(=O)O; Pen = CC(C)(S)[C@H](N)C(=O)O

B1: SEQ ID NO 129 (peptide)
peptide: Ac-[Pen][NMeR]SDTL[Pen][Phe(4-COOH)]E[dK]-NH2
modifications: disulfide 1-7; not fully specified (residue 10); printed as (Ac-Pen-(N-Me-R)-S-D-T-L-Pen-F(4-COOH)-E-k-NH2)2-DIG; also: homodimer of two subunits joined by DIG linker
Regarding B1, the IC50 in assay [1] was greater than 100 nM.

B2: biotin-labeled vedolizumab (antibody, INN chains, looked up, V domains shown)
VH: QVQLVQSGAEVKKPGASVKVSCKGSGYTFTSYWMHWVRQAPGQRLEWIGEIDPSESNTNYNQKFKGRVTLTVDISASTAYMELSSLRSEDTAVYYCARGGYDGWDYAIDYWGQGTLVTVSS
VL: DVVMTQSPLSLPVTPGEPASISCRSSQSLAKSYGNTYLSWYLQKPGQSPQLLIYGISNRFSGVPDRFSGSGSGTDFTLKISRVEAEDVGVYYCLQGTHQPYTFGQGTKVEIKR
modifications: biotin label
For the molecule B2, the Percent positive staining in [2] was 86%; in assay [3] it was 7%; in [4], 91%; in assay [5] it was 0.45%; in assay [6], 85%; in assay [7], 55%. Also, the Percent positive staining in assay [8] stood at 53%; in assay [9], 22%; in assay [10] it was 36%; in assay [11] it was 42%. In [12], this molecule returned a Half-life for dissociation of 43 min. In [12], this molecule came in with a Kd of 59.5 nM. Also, in [12], the koff worked out at 0.000266 s⁻¹. The kon in [12] came out at 4470 M⁻¹ s⁻¹.
For Ac-[Pen][NMeR]SDTL[Pen][2Nal][dE][dK]-NH2 (disulfide 1-7 (inferred); also: homodimer via DIG linker) [SEQ ID NO 33], the figures for the IC50 in [13] and in assay [14] were greater than 100 nM and less than 10 nM, respectively. In assay [15], the “α4β7 cell (Hu) IC50” value is greater than 10 nM. For the same molecule, the “α4β1 cell IC50” value in assay [16] was greater than 100000 nM.

A word on the IC50: it is the concentration needed to halve the response being measured. What is called Kd is the concentration at which binding is half-saturated. As usually defined, the koff is a measure of how fast the partners let go of each other. Usually kon stands for a measure of how fast the partners come together. Low values mean slower complex formation, high ones faster complex formation.

(Values after US20160159862A1 (PROTAGONIST THERAPEUTICS, published 2016).)
